Experimental findings from patent publication US20230355660A1 are described below.

Square brackets hold non-standard residues; d marks the D form. Ends that are not written are not given here.

In the assay the target is mAB anti V5 (Thermo Scientific), mouse anti V5 antibody. The assay is described as follows: ELISA: 1 µg/ml mouse anti V5 antibody with increasing amounts of SADC, complexes captured on streptavidin plate via biotinylated SADC peptide, bound IgG detected with anti mouse IgG-HRP.
IPNPLLGLDGGSGDYKDDDDKGK[BiotinAca]GC (peptide, part only; not given: albumin scaffold, part only, also: peptide conjugated to albumin scaffold, copy number not given here) [SADC with albumin scaffold carrying tagged V5 peptide] yielded a 50% effective concentration (EC50) of 0.0279 µg/mL.

Turning to IPNPLLGLDGGSGDYKDDDDKGK[BiotinAca]GC (peptide, part only; not given: transferrin scaffold, part only, also: peptide conjugated to transferrin scaffold, copy number not given here) [SADC with transferrin scaffold carrying tagged V5 peptide], the EC50 is 0.007 µg/mL.

For the molecule IPNPLLGLDGGSGDYKDDDDKGK[BiotinAca]GC (peptide, part only; not given: haptoglobin scaffold, part only, also: peptide conjugated to haptoglobin scaffold, copy number not given here) [SADC with haptoglobin scaffold carrying tagged V5 peptide], the EC50 was found to be 0.0555 µg/mL.
